Source: patent US20120195893A1 (UNITED STATES OF AMERICA AS REPRESENTED BY THE SECRETARY OF …, published 2012)

Molecular target: T1, mouse DEC205 receptor (mouse, UniProt Q60767 28-1723)
T1 construct: whole, on cells; also called DEC25 receptor; CD205
Assay: flow cytometry on DEC205-transfected A204 cells

B1: PyTh1 chimeric molecule (other)
heavy: EVKLLESGGGLVQPGGSLRLSCAASGFTFNDFYMNWIRQPPGQAPEWLGVIRNKGNGYTTEVNTSVKGRFTISRDNTQNILYLQMNSLRAEDTAIYYCARGGPYYYSGDDAPYWGQGVMVTVSSAKTTAPSVYPLAPVCGDTTGSSVTLGCLVKGYFPEPVTLTWNSGSLSSGVHTFPAVLQSDLYTLSSSVTVTSSTWPSQSITCNVAHPASSTKVDKKIEPRGPTIKPCPPCKCPAPNLLGGPSVFIFPPKIKDVLMISLSPIVTCVVVDVSEDDPDVQISWFVNNVEVHTAQTQTHREDYNSTLRVVSALPIQHQDWMSGKEFKCKVNNKDLPAPIERTISKPKGSVRAPQVYVLPPPEEEMTKKQVTLTCMVTDFMPEDIYVEWTNNGKTELNYKNTEPVLDSDGSYFMYSKLRVEKKNWVERNSYSCSVVHEGLHNHHTTKSFSQTPGKGGGGSGGGGSGGGGSVDEQLSKSVKDKVLLPCRYNSPHEDECEDRIYWQKHDKVVLSVIAGKLKVWPEYKNRTLYDNTTYSLIILGLVLSDRGTYSCVVQKKERGTYEVKHLALVKLSIKADFSTPNITESGNPSADTKRITCFASGGFPKPRFSWLENGRELPGINTTISQDPESELYTISSQLDFNTTRNHTIKCLIKYGDAHVSEDFTWEKPPEDPPDSK
light: DIQMTQSPSFLSTSLGNSITITCHASQNIKGWLAWYQQKSGNAPQLLIYKASSLQSGVPSRFSGSGSGTDYIFTISNLQPEDIATYYCQHYQSFPWTFGGGTKLELKRDAAPTVSIFPPSSEQLTSGGASVVCFLNNFYPKDINVKWKIDGSERQNGVLNSWTDQDSKDSTYSMSSTLTLTKDEYERHNSYTCEATHKTSTSPIVKSFNRNECGGGGSGGGGMGGGGSYNRNIVNRLLGDALNGKPEEK
notes: Mouse IgG2a scaffold with the variable domains of rat anti-mouse DEC205, made in SP20 myeloma cells; also called PhyTh1; PyTh1 vaccine
B1: binds.
